In patent US20160311886A1, “Constructs Binding to Phosphatidylserine and Their Use in Disease Treatment and Imaging” (Board of Regents, The University of Texas System, priority 2005, published 2016):

Assays:
[1] = tested on: tumor and normal vascular endothelium; test: Biodistribution of 9D2 antibody and annexin V in tumor bearing mice; assay type: in vivo, mouse
Method: To detect externally-positioned phospholipids, methods were performed essentially as previously described (Example V; Ran et al., 1998). Tumor-bearing SCID mice were injected intravenously with either 50 μg of 9D2 or biotinylated 9D2 antibody or 100 μg of biotinylated annexin V. Sixty min later mice were sacrificed and their blood circulation was exsanguinated and perfused with heparinized saline as previously described (Burrows et al., 1992). All major organs and tumor were harvested and snap-frozen for preparation of cryosections.
Sections were blocked with PBS containing 10% serum. To prevent loss of phospholipids during slide processing, detergents and organic solvents were omitted from blocking and washing buffers. Rat IgM was detected using goat anti rat IgM specific)-HRP conjugate followed by development with carbazole or DAB (Fries et al., 1993). Biotinylated reagents were detected by streptavidin conjugated to HRP.
Tumor sections derived from mice injected with saline or rat IgM of irrelevant specificity served as negative controls. […] No signal was detected under these conditions. The number of positive vessels per high power field was determined at magnification of ×100. At least 10 fields per section were examined and the average percentage of positive vessels was calculated. […]
Structures with localized 9D2 antibody or annexin V were identified as blood vessels by morphological appearance on DAB-stained sections and by co-incident staining with the pan-endothelial cell marker, MECA 32 on serial sections of frozen tissues. Quantification on DAB-stained sections was done by counting vessels stained by MECA 32, 9D2 or annexin V in serial sections of a tumor. […] At least 10 random fields per section (0.317 mm^2/field) were scored in blinded fashion by two independent observers. The mean numbers and standard errors of vessels stained by 9D2, annexin V or MECA 32 were calculated. The mean number of 9D2 or annexin V-positive vessels determined in each tumor type group was compared to the mean number of MECA 32-positive vessels in the same tumor group. […]

[2] = target: T1, human β2GPI (Homo sapiens, UniProt P02749); test: Anti-hβ2GPI ELISA; assay type: binding
T1 construct: Human β2GPI (hβ2GP1) was purified from human plasma essentially as described previously; from tissue; host or cells: pooled human plasma
T1 sequence (P02749 20-345): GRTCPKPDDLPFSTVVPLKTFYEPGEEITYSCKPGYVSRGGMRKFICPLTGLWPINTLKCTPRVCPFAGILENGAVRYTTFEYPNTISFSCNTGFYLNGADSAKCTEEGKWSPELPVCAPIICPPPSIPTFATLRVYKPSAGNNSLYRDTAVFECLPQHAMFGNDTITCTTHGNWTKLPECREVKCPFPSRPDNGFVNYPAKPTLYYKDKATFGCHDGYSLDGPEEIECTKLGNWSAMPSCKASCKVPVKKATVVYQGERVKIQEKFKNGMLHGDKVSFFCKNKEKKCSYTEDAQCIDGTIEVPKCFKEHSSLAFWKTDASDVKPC
Method: The assay was performed as described above with the following modifications. hβ2GPI, nicked hβ2GPI, or recombinant hβ2GPI peptides were coated on 96-well Immunlon 2HB microtiter plates overnight at a concentration of 10 μg/ml. Plates were then blocked in 1% OVA for 1 hr. at room temperature. […] Plates were incubated for 1 hr. at 37° C. and antibody binding was detected. All ELISA studies were performed at least three times.

[3] = tested on: orthotopic MDA-MB-231 tumors; test: 3G4 tumor treatment and histology; assay type: in vivo, mouse
Method: The general protocol for the animal tumor treatment studies is conducted as follows. Unless particular differences are specified, this is the protocol used throughout the studies of the present application.
For the syngeneic model, Meth A mouse fibrosarcoma tumor cells were used. In one xenogeneic model, human MDA-MB-231 breast tumor cells were seeded into the mammary fat pad. In another xenogeneic model, a large human Hodgkin's lymphoma L540 xenograft was established by injecting cells and allowing the tumor to grow to a size of over 500 mm^3 before treatment. […] Treatment was repeated 3 times a week. Animals were monitored twice a week for tumor measurements.
Groups of 8-10 female SCID mice were injected subcutaneously with 2×10^7 L540 cells or orthotopically with 1×10^7 MDA-MB-435 or MDA-MB-231 cells. BALB/c mice were injected subcutaneously with 1×10^6 Meth A cells. Tumors were allowed to grow to an average diameter of 0.8-1 cm (L540), 0.6-0.7 cm (MDA-MB-435), 0.5-0.7 cm (MDA-MB-231), or <0.1 cm (Meth A). […] Animals were monitored three times a week for tumor size and body weight. Mice were sacrificed when tumors in control mice reached a diameter of 1.5-2 cm.

[4] = tested on: tumors; test: Tumor treatment with 3G4 and its F(ab′)2 fragment; assay type: in vivo, mouse; conditions: treated on day 9
[5] = tested on: mCMV RVG102; test: Survival of mCMV-infected mice; assay type: in vivo, mouse; conditions: past 90 days post infection; untreated 25%

## Annexin V: High affinity PS binding ligand; natural ligand binding anionic phospholipids and PE
[1]; B16 tumor
  PS-positive vessels of MECA 32-stained vessels per field: 21.3 ± 6.6%
[1]; L540cy tumor
  PS-positive vessels of MECA 32-stained vessels per field: 16.7 ± 3.9%
[1]; MDA-MB-231 tumor, one hour after i.v. injection
  PS-positive vessels of MECA 32-stained vessels per field: 45.3 ± 5.6%

B1: 3G4: Mouse IgG3 kappa monoclonal antibody to PS and anionic phospholipids; binding mediated by β2-glycoprotein I (antibody, listed as Mus musculus)
VH: MGWTWIFILILSVTTGVHSEVQLQQSGPELEKPGASVKLSCKASGYSFTGYNMNWVKQSHGKSLEWIGHIDPYYGDTSYNQKFRGKATLTVDKSSSTAYMQLKSLTSEDSAVYYCVKGGYYGHWYFDVWGAGTTVTVSSATTTAPSVYPLVP
VL: MDMRAPAQILGFLLLLFPGTRCDIQMTQSPSSLSASLGERVSLTCRASQDIGSSLNWLQQGPDGTIKRLIYATSSLDSGVPKRFSGSRSGSDYSLTISSLESEDFVDYYCLQYVSSPPTFGAGTKLELKRADAAPTVFIFGRIP
[2]
  binding to hβ2GPI coated plate: bound strongly
[3]; BBG3-treated: 160±20
  mean number of CD-31 positive vessels per square millimeter: 50±15 per square millimeter
[3]; FITC-dextran plasma marker
  reduction in total tumor plasma volume vs BBG3: 60%
[3]; MDA-MB-231 tumors
  mice with long-term complete remissions: 30%
[3]; histological examination
  vessels with disintegration of vascular endothelium: about 50%
[3]; mouse, in vivo
  reduction in tumor vascularity: about 70%
[3]; treated vs. untreated mice
  reduction in microvascular density: 70%
[4]
  tumor growth: tumor growth was significantly slowed
[5]
  survival: 100%
